The record followed here is article PMC3119452 (Structure (London, England : 1993), 2010).

Data set [1] has as its target full-length HYL1 (Arabidopsis HYPONASTIC LEAVES1) (Arabidopsis) (UniProt O04492). The data set can be described thus: SEC. Background: Size exclusion chromatography separates by hydrodynamic size, large species first.
Data set [2] shares this target. The data set can be described thus: SEC. The source holds these as a separate data set.
The data set “crystal structure” deals with the molecule itself. As to the kind of experiment: crystal structure.
Another data set has as its target T1, GST-HYL1 fusion protein (Arabidopsis, UniProt O04492 1-419).
T1 sequence (looked up): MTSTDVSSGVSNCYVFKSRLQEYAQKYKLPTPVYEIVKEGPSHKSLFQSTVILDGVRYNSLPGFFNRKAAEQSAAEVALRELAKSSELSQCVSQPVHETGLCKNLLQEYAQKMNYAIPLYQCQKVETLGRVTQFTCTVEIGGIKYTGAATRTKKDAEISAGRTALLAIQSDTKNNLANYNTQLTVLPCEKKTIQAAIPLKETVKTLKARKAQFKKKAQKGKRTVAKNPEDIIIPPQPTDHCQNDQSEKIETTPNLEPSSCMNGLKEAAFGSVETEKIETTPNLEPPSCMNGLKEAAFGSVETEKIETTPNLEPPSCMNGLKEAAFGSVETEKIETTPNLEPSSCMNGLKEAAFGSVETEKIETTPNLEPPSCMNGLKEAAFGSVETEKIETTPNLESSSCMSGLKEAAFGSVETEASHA
As to the kind of experiment: pull-down.

Several values for one entry are separate records, joined by “and”; a condition that tells them apart may be missing. Equal entries are not always repeated. Where two headings read alike, the source gives them in different places.

As a reminder, the stoichiometry N is the number of molecules, sites or subunits per partner or assembly. For “full-length HYL1 (Arabidopsis HYPONASTIC LEAVES1) (from UniProt O04492 1-419) (natural protein)”, the stoichiometry N is 8 and 10 in data set [1]; 2 in data set [2]. The percent of the monomer peak shifted to the 110 kDa peak in data set [2] came to 90%.

B1: HYL1 dsRBD2 (HR2; residues 100-172) (domain or fragment, Arabidopsis, UniProt O04492 100-172, looked up)
chain: GLCKNLLQEYAQKMNYAIPLYQCQKVETLGRVTQFTCTVEIGGIKYTGAATRTKKDAEISAGRTALLAIQSDT
As for B1, in “crystal structure”, the binding result is reported as “binds”.

B2: HR2 (residues 101-171) used in the pull-down (domain or fragment, Arabidopsis, UniProt O04492 101-171, looked up)
chain: LCKNLLQEYAQKMNYAIPLYQCQKVETLGRVTQFTCTVEIGGIKYTGAATRTKKDAEISAGRTALLAIQSD
On to B2, for which the binding result in the data set with GST-HYL1 fusion protein is “binds”.

B3: HYL1 dsRBD1+2 (HR1+2; residues 15-172) (domain or fragment, Arabidopsis, UniProt O04492 15-172, looked up)
chain: VFKSRLQEYAQKYKLPTPVYEIVKEGPSHKSLFQSTVILDGVRYNSLPGFFNRKAAEQSAAEVALRELAKSSELSQCVSQPVHETGLCKNLLQEYAQKMNYAIPLYQCQKVETLGRVTQFTCTVEIGGIKYTGAATRTKKDAEISAGRTALLAIQSDT
B3: in the data set with GST-HYL1 fusion protein, the binding result is “binds”.
